US20200208162

How the values were obtained:
[1] = test system: TLNmir604S3Rv TALEN (encoded by cTNmir604Rv3-01); experiment: cell_activity; conditions: as pair with P1; maize NP2222 immature embryos, Chry5d2 delivery of TALEN and donor; 5.6-24.9% with other strain combinations
[2] = test system: TLNmir604S3Fw TALEN (encoded by cTNmir604Fw3-01); experiment: cell_activity; conditions: as pair with P2; maize NP2222 immature embryos, Chry5d2 delivery of TALEN and donor; 5.6-24.9% with other strain combinations; printed half-site ends in T …

| Sequence | activity [1] [%] | activity [2] [%] |
| --- | --- | --- |
| TCCTAAACAAAGGAGGT (double strand) [MIR604FR3 reverse half-site] | 33.3 |  |
| TCCGTGCAGTGCAGTGT (double strand) [MIR604FR3 forward half-site] |  | 33.3 |
